For experiment [1], the target named is KEAP1 (wild-type full-length), His-tagged (human) (UniProt Q14145). The experiment is described as follows: AlphaScreen; FLAG-NRF2 wt isoform 1 153.6 nM, His-KEAP1 150 nM; Rep 2; positive control for Q75R.
Experiment [2] shares this target. The experiment is described as follows: AlphaScreen; 4.8 nM FLAG-NRF2, 150 nM His-KEAP1; Rep 1; control for I86V.
The target is the same in experiment [3]. Put plainly: AlphaScreen; 9.6 nM FLAG-NRF2, 150 nM His-KEAP1; Rep 3; control for I86V.
The target is the same in experiment [4]. The experiment is described as follows: AlphaScreen; 153.6 nM FLAG-NRF2, 150 nM His-KEAP1; Rep 2; control for I28V.
Experiment [5] shares this target. The experiment is described as follows: AlphaScreen; 307.2 nM FLAG-NRF2, 150 nM His-KEAP1; Rep 2; control for I86V.
Experiment [6] has the same target. The experiment is described as follows: AlphaScreen; 9.6 nM FLAG-NRF2, 150 nM His-KEAP1; Rep 2; control for I86V.
For experiment [7] the target is unchanged. The experiment is described as follows: AlphaScreen; FLAG-NRF2 wt isoform 1 1228.8 nM, His-KEAP1 150 nM; Rep 1; positive control for Q75R.
Experiment [8] shares this target. The experiment is described as follows: AlphaScreen; NRF2 wt isoform 1 9.6 nM, KEAP1 150 nM; signal against NRF2-only control; control for I86V.
Experiment [9] shares this target. Put plainly: AlphaScreen; FLAG-NRF2 wt isoform 1 76.8 nM, His-KEAP1 150 nM; Rep 2; positive control for Q75R.
Experiment [10] shares this target. Put plainly: AlphaScreen; FLAG-NRF2 wt isoform 1 614.4 nM, His-KEAP1 150 nM; Rep 1; positive control for Q75R.
For experiment [11] the target is unchanged. The experiment is described as follows: AlphaScreen; 2.4 nM FLAG-NRF2, 150 nM His-KEAP1; Rep 2; control for I86V.
The target is the same in experiment [12]. Put plainly: AlphaScreen; 9.6 nM FLAG-NRF2, 150 nM His-KEAP1; Rep 1; control for I86V.
Experiment [13] has the same target. The experiment is described as follows: AlphaScreen; NRF2 wt isoform 1 19.2 nM, KEAP1 150 nM; set as the 100 % reference for I86V.
Experiment [14] has the same target. The experiment is described as follows: AlphaScreen; 2.4 nM FLAG-NRF2, 150 nM His-KEAP1; signal against NRF2 only; control for I86V.
Experiment [15] has the same target. The experiment is described as follows: AlphaScreen; 2.4 nM FLAG-NRF2, 150 nM His-KEAP1; Rep 2.
The target is the same in experiment [16]. Put plainly: AlphaScreen; 307.2 nM FLAG-NRF2, 150 nM His-KEAP1; Rep 1.
The target is the same in experiment [17]. The experiment is described as follows: AlphaScreen; 9.6 nM FLAG-NRF2, 150 nM His-KEAP1; signal against NRF2 only.
The target is the same in experiment [18]. The experiment is described as follows: AlphaScreen; 19.2 nM FLAG-NRF2, 150 nM His-KEAP1; Rep 2.
Experiment [19] has the same target. Put plainly: AlphaScreen; FLAG-NRF2 Q75R 9.6 nM, His-KEAP1 150 nM; Rep 1.
For experiment [20] the target is unchanged. Put plainly: AlphaScreen; FLAG-NRF2 Q75R 9.6 nM, His-KEAP1 150 nM; Repeat 2.
For experiment [21] the target is unchanged. The experiment is described as follows: AlphaScreen; FLAG-NRF2 Q75R 2.4 nM, His-KEAP1 150 nM; Rep 1.
The target is the same in experiment [22]. The experiment is described as follows: AlphaScreen; NRF2 I86V 19.2 nM, KEAP1 150 nM; relative to wild-type NRF2 isoform 1 (100 %).
Experiment [23] has the same target. Put plainly: AlphaScreen; NRF2 I86V 76.8 nM, KEAP1 150 nM; signal against NRF2-only control.
Experiment [24] shares this target. The experiment is described as follows: AlphaScreen; FLAG-NRF2 I86V 4.8 nM, His-KEAP1 150 nM; Rep 3.
For experiment [25] the target is unchanged. Put plainly: AlphaScreen; NRF2 I86V 153.6 nM, KEAP1 150 nM; signal against NRF2-only control.
Experiment [26] shares this target. The experiment is described as follows: AlphaScreen; FLAG-NRF2 I86V 307.2 nM, His-KEAP1 150 nM; Rep 1.
Experiment [27] shares this target. The experiment is described as follows: AlphaScreen; FLAG-NRF2 I86V 307.2 nM, His-KEAP1 150 nM; Rep 3.

The text below walks through data of patent US20250352667A1.

Substitutions are numbered along the chain they refer to. Numbers in names are those of the source.

Chain of KEAP1 (wild-type full-length), His-tagged (human) (Q14145 2-624 limits assumed): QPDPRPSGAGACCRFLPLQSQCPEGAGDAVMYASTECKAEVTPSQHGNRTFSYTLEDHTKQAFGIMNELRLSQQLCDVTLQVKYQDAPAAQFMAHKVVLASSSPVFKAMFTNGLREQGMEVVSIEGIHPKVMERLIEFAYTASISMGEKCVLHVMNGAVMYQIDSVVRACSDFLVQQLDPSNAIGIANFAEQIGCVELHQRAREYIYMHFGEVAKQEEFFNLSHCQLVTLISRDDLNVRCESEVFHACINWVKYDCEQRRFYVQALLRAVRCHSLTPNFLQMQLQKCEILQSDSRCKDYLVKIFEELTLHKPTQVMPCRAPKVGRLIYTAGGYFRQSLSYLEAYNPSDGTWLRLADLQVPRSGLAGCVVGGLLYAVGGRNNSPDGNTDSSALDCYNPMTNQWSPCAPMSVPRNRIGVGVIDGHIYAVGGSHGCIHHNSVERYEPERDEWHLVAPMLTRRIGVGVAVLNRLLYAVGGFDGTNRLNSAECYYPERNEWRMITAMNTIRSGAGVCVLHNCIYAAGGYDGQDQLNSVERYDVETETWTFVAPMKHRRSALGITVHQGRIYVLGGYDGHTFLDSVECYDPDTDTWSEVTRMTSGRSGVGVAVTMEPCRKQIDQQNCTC

B1: NRF2 isoform 1 (wild-type full-length), FLAG-tagged (protein)
chain: MMDLELPPPGLPSQQDMDLIDILWRQDIDLGVSREVFDFSQRRKEYELEKQKKLEKERQEQLQKEQEKAFFAQLQLDEETGEFLPIQPAQHIQSETSGSANYSQVAHIPKSDALYFDDCMQLLAQTFPFVDDNEVSSATFQSLVPDIPGHIESPVFIATNQAQSPETSVAQVAPVDLDGMQQDIEQVWEELLSIPELQCLNIENDKLVETTMVPSPEAKLTEVDNYHFYSSIPSMEKEVGNCSPHFLNAFEDSFSSILSTEDPNQLTVNSLNSDATVNTDFGDEFYSAFIAEPSISNSMPSPATLSHSLSELLNGPIDVSDLSLCKAFNQNHPESTAEFNDSDSGISLNTSPSVASPEHSVESSSYGDTLLGLSDSEVEELDSAPGSVKQNGPKTPVHSSGDMVQPLSPSQGQSTHVHDAQCENTPEKELPVSPGHRKTPFTKDKHSSRLEAHLTRDELRAKALHIPFPVEKIINLPVVDFNEMMSKEQFNEAQLALIRDIRRRGKNKVAAQNCRKRKLENIVELEQDLDHLKDEKEKLLKEKGENDKSLHLLKKQLSTLYLEVFSMLRDEDGKPYSPSEYSLQQTRDGNVFLVPKSKKPDVKKN
For the molecule B1, the A-counts (NRF2 plus KEAP1) in experiment [1] was 1500 A-counts; in [7], 1490 A-counts; in experiment [9], 1420 A-counts; in [10] it was 1650 A-counts. Besides, the A-counts in experiment [2] turned out to be 1810 A-counts; in experiment [3] it was 2410 A-counts; in experiment [4], 1880 A-counts; in [5], 2790 A-counts; in [6], 2720 A-counts; in experiment [11] it was 959 A-counts. The molecule further returned an A-counts in experiment [12] of 2640 A-counts. Further, the S/N in experiment [8] stood at 3.6; in [14], 1.7. The Binding Percentage in experiment [13] was 100%.

B2: NRF2 isoform 1 (I28V full-length), FLAG-tagged (protein)
chain: B1 chain with I28V
Turning to B2, the A-counts in experiment [15] stood at 696 A-counts; in experiment [16], 1310 A-counts; in experiment [18], 1700 A-counts. Besides, in experiment [17], the S/N worked out at 3.4.

B3: NRF2 isoform 1 (Q75R full-length), FLAG-tagged (protein)
chain: B1 chain with Q75R
For B3, the A-counts (NRF2 plus KEAP1) in experiment [19] was found to be 1180 A-counts; in experiment [20], 1090 A-counts; in experiment [21], 588 A-counts.

B4: NRF2 isoform 1 (I86V full-length), FLAG-tagged (protein)
chain: B1 chain with I86V
On to B4, for which the Binding Percentage in [22] turned out to be 97.8%. For the same molecule, the results for the S/N in experiment [23] and in experiment [25] were 2.3 and 2, respectively. Also, the A-counts (NRF2 plus KEAP1) was 2180 A-counts in experiment [24], 2210 A-counts in experiment [26] and 2140 A-counts in [27].
